Measurements from US20160200782A1 (MOERAE MATRIX, published 2016).

How the values were obtained:
Assay in all cases: cell-based or functional assay
Fer(h) = Fer(h) (human, UniProt P16591 541-822, limits assumed)
MLK1(h) = MLK1(h) (human, UniProt P80192 132-413, limits assumed)
PKCα(h) = PKCα(h) (human, UniProt P17252 1-672)
TBK1(h) = target: T1, TBK1(h) (human, UniProt Q9UHD2 1-729, limits assumed)
T1 sequence (looked up): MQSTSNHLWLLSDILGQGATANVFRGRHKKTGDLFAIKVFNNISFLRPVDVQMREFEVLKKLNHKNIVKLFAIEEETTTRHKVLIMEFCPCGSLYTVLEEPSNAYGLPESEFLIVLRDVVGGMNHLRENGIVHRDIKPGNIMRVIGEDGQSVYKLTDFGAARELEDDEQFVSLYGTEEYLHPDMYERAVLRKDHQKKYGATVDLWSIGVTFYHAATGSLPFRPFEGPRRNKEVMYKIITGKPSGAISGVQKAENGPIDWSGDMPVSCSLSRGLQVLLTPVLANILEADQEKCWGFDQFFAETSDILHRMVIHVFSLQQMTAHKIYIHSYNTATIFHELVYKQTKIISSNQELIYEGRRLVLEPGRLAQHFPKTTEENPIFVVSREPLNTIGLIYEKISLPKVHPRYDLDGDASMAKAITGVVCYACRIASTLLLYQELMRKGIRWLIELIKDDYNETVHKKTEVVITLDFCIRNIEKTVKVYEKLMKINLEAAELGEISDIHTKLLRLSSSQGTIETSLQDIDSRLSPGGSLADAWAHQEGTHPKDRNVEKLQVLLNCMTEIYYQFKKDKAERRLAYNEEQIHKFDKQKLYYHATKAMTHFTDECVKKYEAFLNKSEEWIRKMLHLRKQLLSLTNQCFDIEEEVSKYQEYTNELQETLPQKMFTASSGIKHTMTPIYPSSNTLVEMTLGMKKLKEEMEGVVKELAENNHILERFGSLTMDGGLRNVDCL

EphA8(h) = target: T2, EphA8(h) (human, UniProt P29322 564-1005, limits assumed)
T2 sequence (looked up): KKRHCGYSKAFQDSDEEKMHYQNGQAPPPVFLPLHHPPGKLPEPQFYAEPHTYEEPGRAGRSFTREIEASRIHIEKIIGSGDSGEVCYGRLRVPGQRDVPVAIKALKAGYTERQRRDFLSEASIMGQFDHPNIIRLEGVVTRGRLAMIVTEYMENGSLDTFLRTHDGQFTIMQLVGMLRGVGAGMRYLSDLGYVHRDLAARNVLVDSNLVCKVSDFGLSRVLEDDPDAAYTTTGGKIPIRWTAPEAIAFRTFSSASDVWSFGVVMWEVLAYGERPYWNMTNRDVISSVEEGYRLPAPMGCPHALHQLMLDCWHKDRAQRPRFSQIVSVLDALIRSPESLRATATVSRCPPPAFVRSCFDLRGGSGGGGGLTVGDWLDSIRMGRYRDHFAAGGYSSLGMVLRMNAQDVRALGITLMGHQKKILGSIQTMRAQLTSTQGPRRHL

GRK7(h) = target: T3, GRK7(h) (human, UniProt Q8WTQ7 1-553, limits assumed)
T3 sequence (looked up): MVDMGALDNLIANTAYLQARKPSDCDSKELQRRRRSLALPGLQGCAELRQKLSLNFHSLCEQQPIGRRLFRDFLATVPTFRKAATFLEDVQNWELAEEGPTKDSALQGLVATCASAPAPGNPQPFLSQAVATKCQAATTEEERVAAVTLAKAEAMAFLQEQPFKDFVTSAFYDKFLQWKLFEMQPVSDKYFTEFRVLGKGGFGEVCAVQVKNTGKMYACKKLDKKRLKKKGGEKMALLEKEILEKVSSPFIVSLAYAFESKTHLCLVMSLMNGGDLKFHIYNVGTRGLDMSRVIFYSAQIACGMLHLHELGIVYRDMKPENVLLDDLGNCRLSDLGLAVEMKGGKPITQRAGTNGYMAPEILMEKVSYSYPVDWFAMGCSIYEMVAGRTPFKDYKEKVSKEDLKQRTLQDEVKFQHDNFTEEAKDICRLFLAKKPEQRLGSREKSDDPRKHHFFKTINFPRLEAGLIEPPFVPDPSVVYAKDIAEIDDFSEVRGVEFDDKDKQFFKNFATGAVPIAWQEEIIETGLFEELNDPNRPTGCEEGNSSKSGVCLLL

ErbB4(h) = ErbB4(h) (human, UniProt Q15303 676-1308, limits assumed)
Tie2(Y897S)(h) = Tie2(Y897S)(h) (human, UniProt Q02763 771-1124, limits assumed)
Hck(h) = Hck(h) (human, UniProt P08631 251-518, limits assumed)
Ret(V804L)(h) = target: T4, Ret(V804L)(h) (human, UniProt P07949 658-1114, limits assumed)
T4 sequence (looked up): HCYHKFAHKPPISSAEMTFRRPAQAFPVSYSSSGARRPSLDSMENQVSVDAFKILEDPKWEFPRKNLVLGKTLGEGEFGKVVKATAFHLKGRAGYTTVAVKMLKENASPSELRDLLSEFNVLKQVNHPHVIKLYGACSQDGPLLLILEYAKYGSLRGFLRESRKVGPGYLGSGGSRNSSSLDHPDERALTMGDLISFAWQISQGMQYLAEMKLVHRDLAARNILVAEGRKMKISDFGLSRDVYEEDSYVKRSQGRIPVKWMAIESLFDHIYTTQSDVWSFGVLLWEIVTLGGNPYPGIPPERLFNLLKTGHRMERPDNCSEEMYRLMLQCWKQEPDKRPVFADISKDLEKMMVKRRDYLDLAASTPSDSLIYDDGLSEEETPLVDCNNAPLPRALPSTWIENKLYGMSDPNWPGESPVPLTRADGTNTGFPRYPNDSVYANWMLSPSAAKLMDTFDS

LIMK1(h) = LIMK1(h) (human, UniProt P53667 285-638, limits assumed)
CaMKI(h) = CaMKI(h) (human, UniProt Q14012 1-370, limits assumed)
BTK(R28H)(h) = BTK(R28H)(h) (human, UniProt Q06187 1-659)
CLK3(h) = CLK3(h) (human, UniProt P49761 1-490, limits assumed)
Chain of CLK3(h) (P49761 whole entry): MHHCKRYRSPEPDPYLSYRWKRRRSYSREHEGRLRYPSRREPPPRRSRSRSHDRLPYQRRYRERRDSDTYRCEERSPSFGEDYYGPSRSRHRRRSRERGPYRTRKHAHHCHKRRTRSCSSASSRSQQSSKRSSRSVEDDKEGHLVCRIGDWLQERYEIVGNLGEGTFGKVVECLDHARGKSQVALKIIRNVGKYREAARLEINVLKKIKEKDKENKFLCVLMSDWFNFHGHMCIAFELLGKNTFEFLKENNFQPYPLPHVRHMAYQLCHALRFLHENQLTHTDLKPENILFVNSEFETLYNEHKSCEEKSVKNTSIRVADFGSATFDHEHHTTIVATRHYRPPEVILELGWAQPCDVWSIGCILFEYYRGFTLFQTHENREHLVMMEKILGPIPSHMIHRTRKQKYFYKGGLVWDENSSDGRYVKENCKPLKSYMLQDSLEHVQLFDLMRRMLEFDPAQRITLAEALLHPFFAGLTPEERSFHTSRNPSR

Chain of CaMKI(h) (Q14012 whole entry): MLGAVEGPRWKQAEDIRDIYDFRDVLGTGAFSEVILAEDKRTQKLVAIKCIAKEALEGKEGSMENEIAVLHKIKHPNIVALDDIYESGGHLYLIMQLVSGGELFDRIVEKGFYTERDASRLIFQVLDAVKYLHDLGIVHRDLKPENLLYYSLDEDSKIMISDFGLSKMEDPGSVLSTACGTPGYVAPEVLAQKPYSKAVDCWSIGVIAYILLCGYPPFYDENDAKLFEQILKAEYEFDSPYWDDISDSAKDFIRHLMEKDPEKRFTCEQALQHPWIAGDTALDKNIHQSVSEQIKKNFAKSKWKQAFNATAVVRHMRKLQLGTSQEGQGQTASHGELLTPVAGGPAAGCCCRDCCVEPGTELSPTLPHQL
Chain of BTK(R28H)(h) (Q06187 whole entry R28H): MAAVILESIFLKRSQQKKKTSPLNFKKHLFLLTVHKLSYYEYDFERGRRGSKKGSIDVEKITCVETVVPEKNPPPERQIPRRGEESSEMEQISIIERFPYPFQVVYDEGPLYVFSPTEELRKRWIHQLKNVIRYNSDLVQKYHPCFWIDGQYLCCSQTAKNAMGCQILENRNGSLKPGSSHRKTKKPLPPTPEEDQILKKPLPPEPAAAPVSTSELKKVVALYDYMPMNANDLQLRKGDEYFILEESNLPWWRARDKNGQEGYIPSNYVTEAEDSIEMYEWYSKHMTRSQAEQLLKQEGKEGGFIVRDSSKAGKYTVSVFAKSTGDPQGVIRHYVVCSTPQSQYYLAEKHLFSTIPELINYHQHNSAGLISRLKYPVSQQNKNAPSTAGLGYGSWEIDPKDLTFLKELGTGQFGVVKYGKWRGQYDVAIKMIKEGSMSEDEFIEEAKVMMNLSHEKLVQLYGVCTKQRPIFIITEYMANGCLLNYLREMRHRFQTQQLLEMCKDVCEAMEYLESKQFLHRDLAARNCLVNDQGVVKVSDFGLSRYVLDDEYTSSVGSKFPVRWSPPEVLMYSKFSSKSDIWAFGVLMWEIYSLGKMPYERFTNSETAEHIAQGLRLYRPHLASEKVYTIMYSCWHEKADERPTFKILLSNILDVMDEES
Chain of Tie2(Y897S)(h) (Q02763 771-1124 Y897S limits assumed): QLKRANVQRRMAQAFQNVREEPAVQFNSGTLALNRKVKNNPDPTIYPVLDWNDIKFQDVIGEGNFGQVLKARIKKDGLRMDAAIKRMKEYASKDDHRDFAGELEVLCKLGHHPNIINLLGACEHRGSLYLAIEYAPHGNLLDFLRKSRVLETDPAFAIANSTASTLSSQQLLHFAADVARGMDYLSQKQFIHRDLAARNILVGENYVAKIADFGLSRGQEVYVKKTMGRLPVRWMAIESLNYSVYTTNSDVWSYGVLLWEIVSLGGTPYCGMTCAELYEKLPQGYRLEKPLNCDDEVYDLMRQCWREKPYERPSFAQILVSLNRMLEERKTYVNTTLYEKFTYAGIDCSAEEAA
Chain of MLK1(h) (P80192 132-413 limits assumed): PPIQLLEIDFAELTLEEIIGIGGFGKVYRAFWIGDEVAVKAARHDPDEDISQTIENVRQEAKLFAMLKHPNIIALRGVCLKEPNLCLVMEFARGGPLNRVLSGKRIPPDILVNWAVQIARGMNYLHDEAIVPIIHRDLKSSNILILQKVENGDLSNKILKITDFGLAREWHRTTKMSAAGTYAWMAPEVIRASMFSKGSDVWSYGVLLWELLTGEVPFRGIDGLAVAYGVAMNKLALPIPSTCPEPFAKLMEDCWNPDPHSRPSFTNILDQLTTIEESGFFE
Chain of Hck(h) (P08631 251-518 limits assumed): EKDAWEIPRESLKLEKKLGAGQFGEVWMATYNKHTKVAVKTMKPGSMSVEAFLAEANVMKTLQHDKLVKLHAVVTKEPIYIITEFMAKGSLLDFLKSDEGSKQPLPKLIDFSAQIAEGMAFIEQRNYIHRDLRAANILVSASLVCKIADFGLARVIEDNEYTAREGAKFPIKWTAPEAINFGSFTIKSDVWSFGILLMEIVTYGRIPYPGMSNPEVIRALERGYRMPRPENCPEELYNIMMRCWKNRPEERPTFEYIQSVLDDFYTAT
Chain of Fer(h) (P16591 541-822 limits assumed): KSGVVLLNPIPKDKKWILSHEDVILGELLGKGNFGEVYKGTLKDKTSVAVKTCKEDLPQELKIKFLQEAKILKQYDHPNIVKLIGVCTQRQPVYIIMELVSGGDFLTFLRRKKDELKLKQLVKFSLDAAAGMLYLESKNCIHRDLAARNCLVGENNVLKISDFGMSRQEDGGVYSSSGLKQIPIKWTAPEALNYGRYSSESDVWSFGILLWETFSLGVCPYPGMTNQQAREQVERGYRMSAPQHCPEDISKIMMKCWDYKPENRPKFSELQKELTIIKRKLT
Chain of ErbB4(h) (Q15303 676-1308 limits assumed): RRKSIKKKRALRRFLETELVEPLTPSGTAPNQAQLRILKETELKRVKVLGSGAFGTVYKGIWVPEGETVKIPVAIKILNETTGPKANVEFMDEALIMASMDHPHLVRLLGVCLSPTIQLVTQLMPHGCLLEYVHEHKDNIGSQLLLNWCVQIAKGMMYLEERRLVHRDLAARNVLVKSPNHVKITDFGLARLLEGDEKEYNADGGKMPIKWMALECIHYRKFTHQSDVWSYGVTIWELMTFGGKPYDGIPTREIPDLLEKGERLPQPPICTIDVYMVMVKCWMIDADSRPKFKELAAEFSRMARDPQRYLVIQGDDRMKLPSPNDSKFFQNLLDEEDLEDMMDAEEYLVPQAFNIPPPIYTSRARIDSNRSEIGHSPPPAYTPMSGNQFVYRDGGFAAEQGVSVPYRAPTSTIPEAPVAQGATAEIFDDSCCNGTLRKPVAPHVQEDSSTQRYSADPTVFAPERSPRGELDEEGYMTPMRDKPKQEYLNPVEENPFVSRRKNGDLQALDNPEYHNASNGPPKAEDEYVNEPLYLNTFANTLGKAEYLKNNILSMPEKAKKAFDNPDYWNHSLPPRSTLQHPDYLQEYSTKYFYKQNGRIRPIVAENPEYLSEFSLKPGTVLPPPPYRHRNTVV
Chain of LIMK1(h) (P53667 285-638 limits assumed): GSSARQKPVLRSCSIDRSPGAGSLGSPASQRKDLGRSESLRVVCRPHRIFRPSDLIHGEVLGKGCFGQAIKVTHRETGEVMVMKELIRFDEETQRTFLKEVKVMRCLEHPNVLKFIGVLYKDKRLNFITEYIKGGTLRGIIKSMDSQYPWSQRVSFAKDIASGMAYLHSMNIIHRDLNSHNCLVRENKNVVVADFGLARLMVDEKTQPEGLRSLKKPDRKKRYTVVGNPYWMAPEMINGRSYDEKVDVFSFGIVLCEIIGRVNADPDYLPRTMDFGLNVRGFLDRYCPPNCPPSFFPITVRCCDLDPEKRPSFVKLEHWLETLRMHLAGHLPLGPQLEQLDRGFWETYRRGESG

Binder | % activity (Fer(h)) | % activity (MLK1(h)) | % activity (PKCα(h)) | % activity (TBK1(h)) | % activity (EphA8(h)) | % activity (GRK7(h)) | % activity (ErbB4(h)) | % activity (Tie2(Y897S)(h)) | % activity (Hck(h)) | % activity (Ret(V804L)(h)) | % activity (LIMK1(h)) | % activity (CaMKI(h)) | % activity (BTK(R28H)(h)) | % activity (CLK3(h))
FAKLAARLYRKALARQLGVAA [MMI-0300] | 130% | 40% | 89% | 37% | 93% | 122% | 40% | 83% | 72% | 79% | 88% | 1% | 74% | 61%
KAFAKLAARLYRKALARQLGVAA [MMI-0400] | 108% | 33% | 86% | 39% | 146% | 100% | 0% | 87% | 72% | 73% | 92% | 0% | 24% | 84%
